The labels stand for the following.
B1: P1AE5718 (antibody, V domains shown)
VH: ELQLLESGGGLVQPGGSLRLSCAASGFTFSKYAMAWVRQAPGKGLEWVASISTGGVNTYYRDSVKARFTISRDNAKNTLYLQMNSLRAEDTAVYYCATHTGDYFDYWGQGTMVTVSS
VL: DIQMTQSPSSLSASVGDRVTITCRASQSVSISGINLMNWYQQKPGKQPKLLIYHASILASGVPSRFSGSGSGTDFTLTISSLQPEDFATYYCQQTRESPLTFGQGTRLEIK
B2: P1AE5719 (antibody, V domains shown)
VH: ELQLLESGGGLVQPGGSLRLSCAASGFTFSKYAMAWVRQAPGKGLEWVASISTGGVNTYYRDSVKARFTISRDNAKNTLYLQMNSLRAEDTAVYYCATHTGDYFDYWGQGTMVTVSS
VL: DIQMTQSPSSLSASVGDRVTITCRASQSVSISGINLMNWYQQKPGQQPKLLIYHASILASGVPSRFSGSGSGTDFTLTISSLQPEDFATYYCQQTRESPLTFGQGTRLEIK
B3: P1AE5724 (antibody, V domains shown)
VH: EVQLLESGGGLVQPGGSLRLSCAASGFTFSKYAMAWVRQAPGKGLEWVASISTGGVNTYYADSVKGRFTISRDNSKNTLYLQMNSLRAEDTAVYYCATHTGDYFDYWGQGTMVTVSS
VL: DIQMTQSPSSLSASVGDRVTITCRASQSVSISGINLMNWYQQKPGKQPKLLIYHASILASGVPSRFSGSGSGTDFTLTISSLQPEDFATYYCQQTRESPLTFGQGTRLEIK
B4: P1AE5731 (antibody, V domains shown)
VH: ELQLLESGGGLVQPGGSLRLSCAASGFTFSKYAMAWVRQAPGKGLEWVASISTGGVNTYYADSVKGRFTISRDNAKNTLYLQMNSLRAEDTAVYYCATHTGDYFDYWGQGTMVTVSS
VL: DIQMTQSPSSLSASVGDRVTITCRASQSVSISGINLMNWYQQKPGQQPKLLIYHASILASGVPSRFSGSGSGTDFTLTISSLQPEDFATYYCQQTRESPLTFGQGTRLEIK
B5: P1AE5730 (antibody, V domains shown)
VH: ELQLLESGGGLVQPGGSLRLSCAASGFTFSKYAMAWVRQAPGKGLEWVASISTGGVNTYYADSVKGRFTISRDNAKNTLYLQMNSLRAEDTAVYYCATHTGDYFDYWGQGTMVTVSS
VL: DIQMTQSPSSLSASVGDRVTITCRASQSVSISGINLMNWYQQKPGKQPKLLIYHASILASGVPSRFSGSGSGTDFTLTISSLQPEDFATYYCQQTRESPLTFGQGTRLEIK
B6: P1AE5725 (antibody, V domains shown)
VH: EVQLLESGGGLVQPGGSLRLSCAASGFTFSKYAMAWVRQAPGKGLEWVASISTGGVNTYYADSVKGRFTISRDNSKNTLYLQMNSLRAEDTAVYYCATHTGDYFDYWGQGTMVTVSS
VL: DIQMTQSPSSLSASVGDRVTITCRASQSVSISGINLMNWYQQKPGQQPKLLIYHASILASGVPSRFSGSGSGTDFTLTISSLQPEDFATYYCQQTRESPLTFGQGTRLEIK

Chain of human GPRC5D (Q9NZD1 whole entry): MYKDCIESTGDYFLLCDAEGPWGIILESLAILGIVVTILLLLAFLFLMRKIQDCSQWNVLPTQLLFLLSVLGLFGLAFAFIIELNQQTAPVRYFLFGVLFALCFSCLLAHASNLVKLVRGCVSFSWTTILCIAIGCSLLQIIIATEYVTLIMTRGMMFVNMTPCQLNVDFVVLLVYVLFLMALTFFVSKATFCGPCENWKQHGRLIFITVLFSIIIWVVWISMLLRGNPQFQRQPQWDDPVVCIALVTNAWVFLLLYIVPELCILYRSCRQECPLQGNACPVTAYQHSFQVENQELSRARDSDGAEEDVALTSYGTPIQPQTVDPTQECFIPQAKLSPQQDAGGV

This experiment concerns the target human GPRC5D (human, UniProt Q9NZD1 1-345). Kind of experiment: cell-based or functional assay.
For the molecule B1, the “CAR-J2 EC50 (PGLALA-CAR-J activation, L363 target cells)” value (shortened to “CAR-J2 EC50”) worked out at 105 ng/mL.
On to B2, for which the “CAR-J2 EC50” value was 2.8 ng/mL.
For the molecule B3, the “CAR-J2 EC50” value amounted to 3.6 ng/mL.
B4: the “CAR-J2 EC50” value worked out at 2.3 ng/mL.
In the case of B5, the “CAR-J2 EC50” value amounted to 3.5 ng/mL.
Consider B6, for which the “CAR-J2 EC50” value stood at 10.9 ng/mL.

(Values after patent publication US20210054094A1 (Hoffmann-La Roche, published 2021).)
